Experimental data: patent US8143228B2, “Agents capable of downregulating an MSF-A dependent HIF-1α and use thereof in cancer treatment” (Medical Research Fund of Tel Aviv Sourasky Medical Center, priority 2004, dated 2012)

What was measured:
[1] = biological target: T1, HIF-1α protein (Homo sapiens, UniProt Q16665); experiment: Co-immunoprecipitation / immunoblotting with HIF-1α in transfected HEK 293 cells; type: binding; settings: transient transfection
T1 construct: expressed in transfected cells; host or cells: HEK 293
Procedure: FIGS. 9a-c are Western blot analyses of FLAG (MSF-A; FIGS. 9a and b) and HIF-1α (FIG. 9c) depicting the interaction between HIF-1α and the WT or deleted forms of MSF-A. HEK 293 cells were transiently co-transfected with expression vector encoding Flag-MSF-A (WT; p3xFlag-MSF-A), Flag-ΔG (AG; p3xFlag-ΔG-MSF-A), Flag-ΔN (ΔN; p3xFlag-ΔN-MSF-A) or empty vector (EV; p3xFlag-cmv-25). After 48 hours, the cells were lysed, subjected for immunoprecipitation (IP) using HIF-1α antibody and then immunoblotted (IB) with HIF-1α or Flag antibodies. FIG. 9a—whole cell extracts (WCE) subjected to IB with the Flag antibody (MSF-A); FIG. 9b—IP prepared by the HIF-1α antibody were subjected to IB with the Flag antibody (MSF-A); FIG. 9c—IP prepared by the HIF-1α antibody were subjected to IB with the HIF-1α antibody.
Immunoblotting—Proteins (30-60 μg/lane) from WCEs were resolved by 7.5% SDS-PAGE, electro-blotted to nitrocellulose membranes and incubated with the indicated primary antibodies, followed by horseradish peroxidase-conjugated secondary antiserum (Amersham Biosciences, Piscataway, N.J.). Immunoreactivity was visualized by Amersham enhanced chemiluminescence reagent (Amersham Biosciences, Piscataway, N.J.). For sequential blotting with additional antibodies, the membranes were stripped from the first primary antibody using a restore Western blot stripping buffer (Pierce, Rockford, Ill.) and were re-probed using the second primary antibody as indicated.
Immunoprecipitation—Cells were washed twice with ice-cold PBS, lysed in 20 mM Na-HEPES, pH 7.5, 0.5% Nonidet P-40, 0.1M NaCl, 2 mM EDTA, 10% Glycerol and 2 mM DTT supplemented with protease and phosphatase inhibitors, and were subjected to immunoprecipitation using anti-HIF-1α antibody and protein G-agarose beads (Pierce, Ill.) according to the manufacturer's instructions.
To confirm the interaction between the HIF-1α and the MSF-A proteins, HEK 293 cells were transiently co-transfected with the p3xFlag-MSF-A and the pcDNA3.1-HIF-1α vectors, and were grown for 24 hours under normoxic conditions (i.e., conditions of 20% oxygen), following which whole cell extracts (WCE) were subjected to co-immunoprecipitation (IP) using anti-FLAG or anti-HIF-1α antibodies. Following IP, the proteins were subjected to SDS-PAGE and immunoblotting (IB) using the counterpart antibody. As is shown in FIGS. 3a-d, following transfection with both expression vectors (i.e., pcDNA3.1-HIF-1α and p3xFlag-MSF-A) immunoprecipitates generated using either the anti-HIF-1α antibody or the anti-Flag antibody included the reciprocal proteins, i.e., the Flag-MSF-A or HIF-1α proteins, respectively.

[2] = test system: PC-3 cells; experiment: Cell proliferation assay with XTT reagent; type: cell-based; settings: PC-3-MSF-A vs PC-3-Neo cells, normoxia and hypoxia
Procedure: FIG. 13 is a graph depicting the effect of MSF-A over-expression on cell proliferation. PC-3-Neo and PC-3-MSF-A cells were grown under normoxic and hypoxic conditions for the indicated time and then analyzed for proliferation using XTT assay. Proliferation was expressed as increase in % of the initial O.D. measured on the next day of seeding which was considered 100%. Growth media were not changed until the end of the experiment.
Cell proliferation assay with XTT reagent—For cell proliferation assay, PC-3-Neo and PC-3-MSF-A cells were seeded in 96 well-plates (1000 cells/well in 200 μLI) using a 3-bis-(2-methoxy-4-nitro-5 sulfenyl)-(2H)-tetrazolium-5-carboxanilide (XTT) kit (Biological Industries Ltd. Kibbutz Beit Haemek, Israel). Wells filled with media served as a control. On the next day, the cells were cultured either under normoxic or hypoxic conditions. XTT reagent was added at days 0, 2, 4 and 6 following the manufacturer's instructions. The absorbance of the samples was measured using a microplate reader at a wavelength of 450 nm using Elisa reader 680 (Bio-rad, Hercules, Calif.). All experiments were performed in triplicate.

T1 sequence (Q16665 whole entry): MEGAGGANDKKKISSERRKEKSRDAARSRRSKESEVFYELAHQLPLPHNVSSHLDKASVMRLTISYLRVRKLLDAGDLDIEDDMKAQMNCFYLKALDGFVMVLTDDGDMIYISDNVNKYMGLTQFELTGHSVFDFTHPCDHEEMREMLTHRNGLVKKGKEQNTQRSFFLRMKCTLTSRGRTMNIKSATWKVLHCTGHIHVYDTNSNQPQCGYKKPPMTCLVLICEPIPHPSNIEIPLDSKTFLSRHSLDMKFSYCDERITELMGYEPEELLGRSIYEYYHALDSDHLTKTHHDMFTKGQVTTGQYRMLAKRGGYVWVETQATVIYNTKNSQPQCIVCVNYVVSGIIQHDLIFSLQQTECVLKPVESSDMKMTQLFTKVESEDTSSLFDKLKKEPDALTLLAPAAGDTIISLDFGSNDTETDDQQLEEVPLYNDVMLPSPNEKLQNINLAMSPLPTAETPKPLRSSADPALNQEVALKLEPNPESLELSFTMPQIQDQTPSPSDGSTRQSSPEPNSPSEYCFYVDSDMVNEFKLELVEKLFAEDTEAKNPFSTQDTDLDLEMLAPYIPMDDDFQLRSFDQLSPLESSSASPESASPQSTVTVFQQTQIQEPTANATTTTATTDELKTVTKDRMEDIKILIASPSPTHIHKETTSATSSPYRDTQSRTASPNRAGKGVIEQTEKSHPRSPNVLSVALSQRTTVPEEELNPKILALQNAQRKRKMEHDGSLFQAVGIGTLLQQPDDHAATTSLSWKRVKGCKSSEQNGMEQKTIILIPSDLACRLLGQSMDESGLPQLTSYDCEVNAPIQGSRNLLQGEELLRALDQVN

association with HIF-1α protein (co-immunoprecipitation) [1]: strong association
B1: MSF-A: myeloid/lymphoid leukemia septin-like fusion protein A (SEQ ID NO:3), over-expressed from the p3xFlag-MSF-A vector (protein, listed as Homo sapiens)
chain: MKKSYSGGTRTSSGRLRRLGDSSGPALKRSFEVEEVETPNSTPPRRVQTPLLRATVASSTQKFQDLGVKNSEPSARHVDSLSQRSPKASLRRVELSGPKAAEPVSRRTELSIDISSKQVENAGAIGPSRFGLKRAEVLGHKTPEPAPRRTEITIVKPQESAHRRMEPPASKVPEVPTAPATDAAPKRVEIQMPKPAEAPTAPSPAQTLENSEPAPVSQLQSRLEPKPQPPVAEATPRSQEATEAAPSCVGDMADTPRDAGLKQAPASRNEKAPVDFGYVGIDSILEQMRRKAMKQGFEFNIMVVGQSGLGKSTLINTLFKSKISRKSVQPTSEERIPKTIEIKSITHDIEEKGVRMKLTVIDTPGFGDHINNENCWQPIMKFINDQYEKYLQEEVNINRKKRIPDTRVHCCLYFIPATGHSLRPLDIEFMKRLSKVVNIVPVIAKADTLTLEERVHFKQRITADLLSNGIDVYPQKEFDEDSEDRLVNEKFREMIPFAVVGSDHEYQVNGKRILGRKTKWGTIEVENTTHCEFAYLRDLLIRTHMQNIKDITSSIHFEAYRVKRLNEGSSAMANGVEEKEPEAPEM
modifications: 3xFlag tag
proliferation rate (XTT) [2]: higher
